Key:
Assay in all cases: cell-based or functional assay
[1] = target: HIV-1 Env of isolate VLGCB3, clade B, on pseudovirus (HIV-1)
[2] = target: HIV-1 Env of isolate NL43, clade B, on pseudovirus (HIV-1)
[3] = target: HIV-1 Env of pseudovirus MGRM-AE-007 (clade CRF01_AE) (HIV-1)
[4] = target: HIV-1 APV-17 envelope glycoprotein (Env) on pseudovirus (HIV-1)
[5] = target: HIV-1 Env of pseudovirus MGRM-AG-003 (clade CRF_AG) (HIV-1)
[6] = target: HIV-1 Env of isolate 6535.3 (Acute), clade B, on pseudovirus (HIV-1)
[7] = target: HIV-1 envelope glycoprotein (Env) of isolate 92UG031, clade A (HIV-1)
[8] = target: HIV-1 Env of pseudovirus JRFL (HIV-1)
[9] = target: HIV-1 envelope glycoprotein (Env) of isolate 92UG037, clade A (HIV-1)
[10] = target: HIV-1 Env of pseudovirus MGRM-AE-001 (clade CRF01_AE) (HIV-1)
[11] = target: HIV-1 NL43 envelope glycoprotein (Env) on pseudovirus (HIV-1)
[12] = target: HIV-1 Env of pseudovirus MGRM-F1-015 (HIV-1)
[13] = target: HIV-1 Env of pseudovirus MGRM-AE-002 (clade CRF01_AE) (HIV-1)
[14] = target: HIV-1 envelope glycoprotein (Env) of isolate 92RW008, clade A (HIV-1)
[15] = target: HIV-1 Env of isolate THR0.18 (Acute), clade B, on pseudovirus (HIV-1)
[16] = target: HIV-1 92UG005 envelope glycoprotein (Env) on pseudovirus (HIV-1)
[17] = target: HIV-1 93UG077 envelope glycoprotein (Env) on pseudovirus (HIV-1)
[18] = target: HIV-1 Env of isolate MGRM-D-004 (clade D pseudovirus) (HIV-1)
[19] = target: HIV-1 Env of isolate 93TH305, clade B, on pseudovirus (HIV-1)
[20] = target: HIV-1 Env of isolate MGRM-Chronic-B-023 (subtype B) (HIV-1)
[21] = target: HIV-1 Env of isolate MGRM-D-001 (clade D), on pseudovirus (HIV-1)
[22] = target: HIV-1 Env of isolate MG RM-D-005 (HIV-1)
[23] = target: HIV-1 Env of isolate MGRM-AE-002 (subtype AE) (HIV-1)
[24] = target: HIV-1 Env of isolate SF162 (subtype B) (HIV-1) (UniProt P19550)
[25] = target: HIV-1 Env of isolate MGRM-A-003 (HIV-1)
[26] = target: HIV-1 Env of isolate VLGCA1 (subtype A) (HIV-1)
[27] = target: HIV-1 Env of isolate QH0692.42 (subtype B) (HIV-1)
[28] = target: HIV-1 Env of isolate MG RM-D-022 (HIV-1)
[29] = target: HIV-1 Env of isolate 92UG114 (HIV-1)
[30] = target: HIV-1 92BR020 Env (pseudovirus) (HIV-1)
[31] = target: HIV-1 APV17 Env (pseudovirus, clade B) (HIV-1)
[32] = target: HIV-1 Env of isolate MGRM-AG-003 (subtype AG) (HIV-1)
[33] = target: HIV-1 Env of isolate MGRM-Chronic-B-010 (subtype B) (HIV-1)
[34] = target: HIV-1 Env of isolate MGRM-A-005 (HIV-1)

Chain of 5329_C19 (PGT-136) (antibody) (VH): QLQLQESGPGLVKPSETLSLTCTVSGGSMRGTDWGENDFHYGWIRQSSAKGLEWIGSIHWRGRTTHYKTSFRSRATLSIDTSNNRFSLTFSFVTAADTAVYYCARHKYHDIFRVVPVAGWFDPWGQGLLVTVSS
Chain of 5329_C19 (PGT-136) (antibody) (VL): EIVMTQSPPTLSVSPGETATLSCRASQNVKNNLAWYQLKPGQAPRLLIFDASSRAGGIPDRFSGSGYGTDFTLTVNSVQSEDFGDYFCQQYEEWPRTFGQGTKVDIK
Chain of 1443_C16 (PG16) (TCN-116) (antibody) (VH): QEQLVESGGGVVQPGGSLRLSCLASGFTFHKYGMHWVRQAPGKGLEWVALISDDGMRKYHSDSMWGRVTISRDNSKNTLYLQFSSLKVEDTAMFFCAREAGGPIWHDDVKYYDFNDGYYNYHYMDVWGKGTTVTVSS
Chain of 1443_C16 (PG16) (TCN-116) (antibody) (VL): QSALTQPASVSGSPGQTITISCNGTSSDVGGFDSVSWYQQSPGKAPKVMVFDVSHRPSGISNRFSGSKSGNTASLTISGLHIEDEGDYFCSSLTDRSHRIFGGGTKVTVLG

In the case of 2G12 (antibody), the IC50 (µg/ml), pseudovirus neutralization [1] is reported as 7.9 µg/mL, the IC50 (µg/ml), pseudovirus neutralization [2] is reported as 0.49 µg/mL and the IC50 [3] is reported as greater than 50 µg/mL. For the same substance, the IC50, pseudovirus neutralization [4] was greater than 50 µg/mL, the IC50 [5] was greater than 50 µg/mL and the IC50 (µg/ml), pseudovirus neutralization [6] was 3.85 µg/mL. It also gave an IC50 (µg/ml), pseudovirus neutralization [7] greater than 50 µg/mL, an IC50 (µg/ml), pseudovirus neutralization [8] of 1.45 µg/mL and an IC50 (µg/ml), pseudovirus neutralization [9] of 45.2 µg/mL. For the same substance, the IC50 [10] was greater than 50 µg/mL, the IC50, pseudovirus neutralization [11] was 0.75 µg/mL and the IC50 (µg/ml), pseudovirus neutralization [12] was greater than 50 µg/mL. For the same substance, the IC50 [13] was greater than 50 µg/mL, the IC50 (µg/ml), pseudovirus neutralization [14] was 22.5 µg/mL and the IC50 (µg/ml), pseudovirus neutralization [15] was greater than 50 µg/mL. It also gave an IC50, pseudovirus neutralization [16] greater than 50 µg/mL, an IC50, pseudovirus neutralization [17] greater than 50 µg/mL and an IC50 (µg/ml), pseudovirus neutralization [18] greater than 50 µg/mL. The IC50 (µg/ml), pseudovirus neutralization [19] was 0.55 µg/mL.
Substance 5343_B08 (PGT-135) (antibody) has an IC50 neutralization [20] of 0.329 µg/mL, an IC50, pseudovirus neutralization [21] greater than 10 µg/mL and an IC50 (µg/mL), pseudovirus neutralization [22] greater than 50 µg/mL. The IC50 (µg/mL), pseudovirus neutralization [23] was greater than 50 µg/mL, the IC50 neutralization [24] was 0.023 µg/mL and the IC50 [25] was greater than 50 µg/mL. It also gave an IC50 (µg/mL), pseudovirus neutralization [26] greater than 50 µg/mL, an IC50 neutralization [27] greater than 50 µg/mL and an IC50 (µg/mL), pseudovirus neutralization [28] greater than 50 µg/mL. The IC50 (µg/mL), pseudovirus neutralization [29] was 1.29 µg/mL, the neutralization IC50 (pseudovirus) [30] was 0.104 µg/mL and the IC50 neutralization [31] was greater than 10 µg/mL. The IC50 (µg/mL), pseudovirus neutralization [32] was greater than 50 µg/mL, the IC50 neutralization [33] was greater than 50 µg/mL and the IC50 [34] was greater than 50 µg/mL.
5329_C19 (PGT-136) (antibody) gave an IC50 neutralization [20] greater than 50 µg/mL, an IC50, pseudovirus neutralization [21] greater than 10 µg/mL and an IC50 (µg/mL), pseudovirus neutralization [22] greater than 50 µg/mL. For the same substance, the IC50 (µg/mL), pseudovirus neutralization [23] was greater than 50 µg/mL, the IC50 neutralization [24] was 0.482 µg/mL and the IC50 [25] was greater than 50 µg/mL. It also gave an IC50 (µg/mL), pseudovirus neutralization [26] greater than 50 µg/mL, an IC50 neutralization [27] greater than 50 µg/mL and an IC50 (µg/mL), pseudovirus neutralization [28] greater than 50 µg/mL. It also gave an IC50 (µg/mL), pseudovirus neutralization [29] greater than 50 µg/mL, a neutralization IC50 (pseudovirus) [30] greater than 10 µg/mL and an IC50 neutralization [31] greater than 10 µg/mL. For the same substance, the IC50 (µg/mL), pseudovirus neutralization [32] was greater than 50 µg/mL, the IC50 neutralization [33] was greater than 50 µg/mL and the IC50 [34] was greater than 50 µg/mL.
1443_C16 (PG16) (TCN-116) (antibody) was tested, and the IC50 (µg/ml), pseudovirus neutralization [1] was 0.4 µg/mL, the IC50 (µg/ml), pseudovirus neutralization [2] was 0.02 µg/mL and the IC50 [3] was 0.04 µg/mL. The IC50, pseudovirus neutralization [4] was greater than 50 µg/mL, the IC50 [5] was greater than 50 µg/mL and the IC50 (µg/ml), pseudovirus neutralization [6] was 36.9 µg/mL. For the same substance, the IC50 (µg/ml), pseudovirus neutralization [7] was 0.43 µg/mL, the IC50 (µg/ml), pseudovirus neutralization [8] was greater than 50 µg/mL and the IC50 (µg/ml), pseudovirus neutralization [9] was 0.01 µg/mL. For the same substance, the IC50 [10] was 4.33 µg/mL, the IC50, pseudovirus neutralization [11] was less than 0.0025 µg/mL and the IC50 (µg/ml), pseudovirus neutralization [12] was greater than 50 µg/mL. It also gave an IC50 [13] of 0.01 µg/mL, an IC50 (µg/ml), pseudovirus neutralization [14] of 0.002 µg/mL and an IC50 (µg/ml), pseudovirus neutralization [15] of 1.34 µg/mL. For the same substance, the IC50, pseudovirus neutralization [16] was greater than 50 µg/mL, the IC50, pseudovirus neutralization [17] was greater than 50 µg/mL and the IC50 (µg/ml), pseudovirus neutralization [18] was 0.01 µg/mL. It also gave an IC50 (µg/ml), pseudovirus neutralization [19] of 19.3 µg/mL.
